Results: the supplement of paper PMC10065799, “High-throughput profiling of sequence recognition by tyrosine kinases and SH2 domains using bacterial peptide display” (eLife, 2023)

What was measured:
AncSZ = assay: phosphorylation enrichment, bacterial display (enrichment ratio); higher = better substrate or ligand; peptides without Tyr show the background
EPHB1 = EPHB1 (UniProt P54762); assay: as above
EPHB2 = EPHB2 (UniProt P29323); assay: as above
FGFR1 = FGFR1 (UniProt P11362); assay: as above
FGFR3 = FGFR3 (UniProt P22607); assay: as above
Fer (mouse) = assay: as above
Fes = Fes (UniProt P07332); assay: as above
Fyn = Fyn (UniProt P06241); assay: as above
Hck = Hck (UniProt P08631); assay: as above
Jak2 = Jak2 (UniProt O60674); assay: as above
MERTK = MERTK (UniProt Q12866); assay: as above
c-Abl (mouse) = assay: as above
c-Src = assay: as above
Grb2 SH2 = Grb2 SH2 (UniProt P62993); assay: SH2 binding enrichment of the phosphorylated peptide, bacterial display (enrichment ratio); higher = better substrate or ligand; peptides without Tyr show the background
SHP2-C SH2 = assay: as above
c-Src SH2 = assay: as above
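Wherever SH2 binding enrichment of the phosphorylated peptide, bacterial display is given: peptide library displayed on the E. coli surface as eCPX fusions, selected cells deep-sequenced, score is each peptide's frequency after selection divided by its frequency in the input.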
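Wherever phosphorylation enrichment, bacterial display is given: 11-residue human phosphosite peptides and single-mutation variants displayed on the E. coli surface, counted by deep sequencing, each peptide's frequency after selection divided by its frequency in the unselected input library; frequency after pTyr selection over input frequency; kinase dosed for 20-30% of maximal phosphorylation in three min.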

Fyn, sequence (P06241 whole entry, looked up): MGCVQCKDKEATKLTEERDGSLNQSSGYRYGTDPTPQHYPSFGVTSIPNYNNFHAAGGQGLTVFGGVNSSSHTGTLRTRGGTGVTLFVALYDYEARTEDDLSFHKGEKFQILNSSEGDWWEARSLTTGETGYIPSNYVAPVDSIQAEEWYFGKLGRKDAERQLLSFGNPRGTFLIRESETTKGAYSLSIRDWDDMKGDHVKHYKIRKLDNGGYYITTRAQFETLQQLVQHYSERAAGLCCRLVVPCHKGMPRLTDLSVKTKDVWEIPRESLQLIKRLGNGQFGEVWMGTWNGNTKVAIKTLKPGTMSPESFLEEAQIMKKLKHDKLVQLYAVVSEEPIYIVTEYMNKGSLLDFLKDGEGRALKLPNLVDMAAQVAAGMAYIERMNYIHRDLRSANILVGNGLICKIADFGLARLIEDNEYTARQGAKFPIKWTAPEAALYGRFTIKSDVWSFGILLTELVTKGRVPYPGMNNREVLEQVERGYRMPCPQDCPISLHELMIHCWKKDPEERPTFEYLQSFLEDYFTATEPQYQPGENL
Hck, sequence (P08631 whole entry, looked up): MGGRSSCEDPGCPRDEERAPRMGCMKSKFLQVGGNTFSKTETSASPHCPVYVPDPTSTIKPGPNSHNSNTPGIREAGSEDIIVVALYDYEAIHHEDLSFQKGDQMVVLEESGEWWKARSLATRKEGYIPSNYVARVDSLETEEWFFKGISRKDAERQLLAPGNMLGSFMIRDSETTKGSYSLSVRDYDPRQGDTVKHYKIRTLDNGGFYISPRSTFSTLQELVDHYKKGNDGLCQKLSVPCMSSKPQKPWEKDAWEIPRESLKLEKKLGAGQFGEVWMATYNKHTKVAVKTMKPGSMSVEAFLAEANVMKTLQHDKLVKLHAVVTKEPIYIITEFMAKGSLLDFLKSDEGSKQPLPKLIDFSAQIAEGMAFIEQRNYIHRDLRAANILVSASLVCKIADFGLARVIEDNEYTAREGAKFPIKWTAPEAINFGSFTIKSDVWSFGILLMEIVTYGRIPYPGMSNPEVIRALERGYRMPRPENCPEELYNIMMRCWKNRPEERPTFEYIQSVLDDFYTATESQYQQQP
MERTK, sequence (Q12866 whole entry, looked up): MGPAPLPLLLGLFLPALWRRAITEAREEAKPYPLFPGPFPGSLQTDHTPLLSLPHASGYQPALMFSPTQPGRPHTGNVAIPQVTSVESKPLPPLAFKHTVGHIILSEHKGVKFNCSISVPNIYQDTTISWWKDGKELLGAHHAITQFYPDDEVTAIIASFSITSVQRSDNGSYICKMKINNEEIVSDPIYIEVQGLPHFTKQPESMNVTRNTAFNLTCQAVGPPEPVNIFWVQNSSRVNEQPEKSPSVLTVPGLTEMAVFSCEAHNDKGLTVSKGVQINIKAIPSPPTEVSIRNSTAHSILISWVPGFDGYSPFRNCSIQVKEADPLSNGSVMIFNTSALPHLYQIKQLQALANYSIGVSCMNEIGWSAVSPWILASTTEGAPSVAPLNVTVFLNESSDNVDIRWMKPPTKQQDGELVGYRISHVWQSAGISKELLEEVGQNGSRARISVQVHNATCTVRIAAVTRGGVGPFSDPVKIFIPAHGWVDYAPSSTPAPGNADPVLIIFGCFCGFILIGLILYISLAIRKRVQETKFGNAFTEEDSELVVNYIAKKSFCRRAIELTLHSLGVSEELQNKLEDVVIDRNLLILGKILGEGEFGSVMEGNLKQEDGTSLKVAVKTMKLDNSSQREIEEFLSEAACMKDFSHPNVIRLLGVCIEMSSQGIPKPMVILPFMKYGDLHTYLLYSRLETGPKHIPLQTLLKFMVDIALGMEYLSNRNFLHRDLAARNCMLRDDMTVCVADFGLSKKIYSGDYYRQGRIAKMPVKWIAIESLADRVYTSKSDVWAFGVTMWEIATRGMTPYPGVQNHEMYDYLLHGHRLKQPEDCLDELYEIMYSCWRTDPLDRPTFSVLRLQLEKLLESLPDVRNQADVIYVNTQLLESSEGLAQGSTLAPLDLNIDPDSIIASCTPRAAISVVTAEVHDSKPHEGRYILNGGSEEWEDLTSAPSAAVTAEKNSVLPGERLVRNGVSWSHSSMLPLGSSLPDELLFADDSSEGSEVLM
EPHB1, sequence (P54762 whole entry, looked up): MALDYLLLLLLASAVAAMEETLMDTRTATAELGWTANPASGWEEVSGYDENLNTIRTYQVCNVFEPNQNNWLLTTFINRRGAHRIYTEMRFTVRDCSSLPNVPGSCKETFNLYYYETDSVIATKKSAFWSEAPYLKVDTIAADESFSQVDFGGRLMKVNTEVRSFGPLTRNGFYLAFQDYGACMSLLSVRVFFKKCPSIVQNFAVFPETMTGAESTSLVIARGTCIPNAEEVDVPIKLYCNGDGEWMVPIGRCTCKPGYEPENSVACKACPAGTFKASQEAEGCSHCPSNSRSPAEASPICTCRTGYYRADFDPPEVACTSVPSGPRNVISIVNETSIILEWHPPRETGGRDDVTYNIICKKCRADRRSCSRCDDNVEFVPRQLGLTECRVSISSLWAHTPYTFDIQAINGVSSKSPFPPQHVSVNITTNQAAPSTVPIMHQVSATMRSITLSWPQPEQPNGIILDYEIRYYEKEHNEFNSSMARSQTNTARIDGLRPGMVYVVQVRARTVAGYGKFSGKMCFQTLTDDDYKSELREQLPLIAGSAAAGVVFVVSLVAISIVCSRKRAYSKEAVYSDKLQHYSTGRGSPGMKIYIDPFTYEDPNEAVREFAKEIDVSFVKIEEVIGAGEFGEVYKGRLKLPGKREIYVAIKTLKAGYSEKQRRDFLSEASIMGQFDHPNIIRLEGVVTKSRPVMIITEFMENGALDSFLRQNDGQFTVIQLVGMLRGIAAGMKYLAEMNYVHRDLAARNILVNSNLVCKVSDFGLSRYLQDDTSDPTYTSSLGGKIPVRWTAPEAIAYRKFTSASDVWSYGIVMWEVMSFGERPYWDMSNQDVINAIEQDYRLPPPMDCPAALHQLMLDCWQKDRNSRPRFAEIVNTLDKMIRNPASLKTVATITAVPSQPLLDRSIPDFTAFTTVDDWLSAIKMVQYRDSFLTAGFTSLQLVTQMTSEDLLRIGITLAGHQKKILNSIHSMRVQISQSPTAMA
Grb2 SH2, sequence (P62993 whole entry, looked up): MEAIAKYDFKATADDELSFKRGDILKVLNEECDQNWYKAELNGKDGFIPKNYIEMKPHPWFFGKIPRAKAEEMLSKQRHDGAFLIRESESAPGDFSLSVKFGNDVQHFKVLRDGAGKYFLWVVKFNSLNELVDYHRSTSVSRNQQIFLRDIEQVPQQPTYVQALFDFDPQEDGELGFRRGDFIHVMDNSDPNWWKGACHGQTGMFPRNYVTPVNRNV
FGFR3, sequence (P22607 whole entry, looked up): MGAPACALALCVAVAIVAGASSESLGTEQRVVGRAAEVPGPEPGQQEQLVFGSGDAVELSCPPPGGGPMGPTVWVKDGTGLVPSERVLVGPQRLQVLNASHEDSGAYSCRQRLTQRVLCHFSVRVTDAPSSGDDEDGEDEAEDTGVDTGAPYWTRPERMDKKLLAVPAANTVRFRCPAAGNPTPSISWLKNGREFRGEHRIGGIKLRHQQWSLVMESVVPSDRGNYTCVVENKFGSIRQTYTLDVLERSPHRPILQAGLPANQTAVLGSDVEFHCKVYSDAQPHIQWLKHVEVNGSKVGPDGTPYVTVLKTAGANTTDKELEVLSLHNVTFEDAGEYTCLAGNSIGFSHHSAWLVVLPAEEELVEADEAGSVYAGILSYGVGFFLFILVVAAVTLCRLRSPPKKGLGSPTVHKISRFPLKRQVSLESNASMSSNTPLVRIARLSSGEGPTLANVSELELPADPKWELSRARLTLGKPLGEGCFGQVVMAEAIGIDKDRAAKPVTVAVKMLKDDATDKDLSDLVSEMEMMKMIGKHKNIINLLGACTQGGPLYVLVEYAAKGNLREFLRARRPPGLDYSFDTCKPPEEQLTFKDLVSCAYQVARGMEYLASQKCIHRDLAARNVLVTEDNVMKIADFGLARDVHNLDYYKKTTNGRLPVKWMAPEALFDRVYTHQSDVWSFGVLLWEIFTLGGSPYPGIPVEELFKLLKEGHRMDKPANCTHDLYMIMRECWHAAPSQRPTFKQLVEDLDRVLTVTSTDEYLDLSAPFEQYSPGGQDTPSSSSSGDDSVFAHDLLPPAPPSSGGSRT
FGFR1, sequence (P11362 whole entry, looked up): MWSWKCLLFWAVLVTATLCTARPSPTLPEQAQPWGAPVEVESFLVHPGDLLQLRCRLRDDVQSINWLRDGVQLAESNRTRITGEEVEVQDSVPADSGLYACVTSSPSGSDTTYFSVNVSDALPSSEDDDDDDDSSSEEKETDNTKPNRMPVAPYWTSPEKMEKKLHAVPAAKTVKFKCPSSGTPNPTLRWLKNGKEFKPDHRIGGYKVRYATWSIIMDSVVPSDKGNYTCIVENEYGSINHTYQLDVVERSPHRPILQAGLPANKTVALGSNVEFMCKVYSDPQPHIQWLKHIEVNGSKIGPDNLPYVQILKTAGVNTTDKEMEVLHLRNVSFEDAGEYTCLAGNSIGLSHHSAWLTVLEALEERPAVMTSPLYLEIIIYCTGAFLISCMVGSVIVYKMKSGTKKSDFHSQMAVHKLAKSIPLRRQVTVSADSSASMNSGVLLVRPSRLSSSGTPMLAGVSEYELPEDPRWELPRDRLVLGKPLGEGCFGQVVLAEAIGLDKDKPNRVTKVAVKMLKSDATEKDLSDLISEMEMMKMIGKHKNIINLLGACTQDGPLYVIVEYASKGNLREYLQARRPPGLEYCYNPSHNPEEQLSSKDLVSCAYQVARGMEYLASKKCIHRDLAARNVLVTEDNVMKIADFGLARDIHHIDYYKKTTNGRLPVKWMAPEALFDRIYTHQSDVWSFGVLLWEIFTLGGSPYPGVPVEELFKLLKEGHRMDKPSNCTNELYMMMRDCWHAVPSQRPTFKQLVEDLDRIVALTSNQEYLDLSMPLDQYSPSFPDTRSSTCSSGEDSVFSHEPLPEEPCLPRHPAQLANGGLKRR

Row | Sequence | phosphorylation enrichment (AncSZ) | phosphorylation enrichment (EPHB1) | phosphorylation enrichment (EPHB2) | phosphorylation enrichment (FGFR1) | phosphorylation enrichment (FGFR3) | phosphorylation enrichment (Fer (mouse)) | phosphorylation enrichment (Fes) | phosphorylation enrichment (Fyn) | phosphorylation enrichment (Hck) | phosphorylation enrichment (Jak2) | phosphorylation enrichment (MERTK) | phosphorylation enrichment (c-Abl (mouse)) | phosphorylation enrichment (c-Src) | SH2 binding enrichment (Grb2 SH2) | SH2 binding enrichment (SHP2-C SH2) | SH2 binding enrichment (c-Src SH2)
1 | VIKDKYPKARF [APTX_Y209_YF] | 0.455 | 0.339 | 0.297 | 0.425 | 0.504 | 0.288 | 0.672 | 0.294 | 0.332 | 0.772 | 0.374 | 0.646 | 0.408 | 1.15 | 1.25 | 1.04
2 | VITDFYVDMKF [MPP4_Y567_YF] | 1.23 | 1.31 | 0.824 | 1.42 | 1.36 | 0.925 | 1.32 | 0.457 | 0.624 | 1.27 | 0.52 | 0.727 | 0.503 | 0.864 | 0.577 | 0.607
3 | VLALWYFFLTH [ZDHHC23_Y127_YF] | 1.42 | 0.963 | 0.676 | 2.08 | 1.76 | 0.644 | 1.76 | 0.614 | 0.682 | 2.27 | 0.882 | 1.01 | 0.602 | 1.28 | 1.16 | 1.06
4 | VLALWYFFLTN [ZDHHC23_Y127_H132N_YF] | 1.16 | 0.746 | 0.63 | 2.05 | 1.94 | 0.595 | 1.68 | 0.535 | 0.62 | 1.91 | 0.963 | 0.904 | 0.654 | 0.936 | 1.03 | 0.985
5 | VLNDAYENLTR [SYNE2_Y3255] | 1.08 | 0.531 | 0.759 | 0.559 | 0.761 | 0.581 | 0.859 | 0.524 | 0.521 | 0.665 | 0.379 | 0.605 | 0.391 | 3.35 | 0.917 | 2.25
6 | VLPIDYFFPPQ [AR_Y552_YF] | 2.91 | 0.708 | 0.914 | 11.5 | 9.06 | 0.35 | 0.82 | 0.574 | 0.604 | 0.969 | 0.459 | 0.502 | 0.522 | 0.986 | 0.882 | 0.696
7 | VMLENYSNLVS [ZFP69_Y109] | 0.819 | 1.49 | 1.24 | 0.654 | 0.608 | 0.556 | 0.781 | 0.563 | 0.49 | 0.49 | 0.375 | 0.39 | 0.363 | 0.851 | 0.555 | 0.669
8 | VNKIYYPDFIV [LIG3_Y768] | 1.23 | 0.621 | 0.516 | 8.82 | 7.46 | 0.494 | 0.918 | 1.09 | 1.25 | 0.666 | 2.72 | 0.596 | 1.48 | 1.07 | 0.697 | 0.675
9 | VNTMLYEKFTY [TEK_Y1108_T1106M] | 1.23 | 8.2 | 6.33 | 0.856 | 0.902 | 10.4 | 1.03 | 6.38 | 7.18 | 0.811 | 7.49 | 1.82 | 5.53 | 0.979 | 0.872 | 2.15
10 | VNYGAYINDFK [GLB1_Y488] | 0.773 | 0.709 | 1.22 | 0.469 | 0.593 | 0.402 | 0.86 | 0.912 | 0.454 | 0.665 | 0.373 | 0.515 | 0.761 | 10.3 | 0.88 | 4.76
11 | VNYGAYINNFK [GLB1_Y488_D491N] | 0.677 | 0.743 | 1.17 | 0.453 | 0.513 | 0.423 | 0.723 | 0.76 | 0.631 | 0.932 | 0.429 | 0.483 | 0.876 | 1.54 | 1.2 | 1.72
12 | VPFAQYLAMNK [HARS1_Y138_R137Q] | 0.685 | 0.488 | 0.431 | 0.494 | 0.536 | 0.406 | 0.639 | 0.458 | 0.54 | 0.838 | 0.403 | 0.504 | 0.44 | 0.959 | 0.798 | 0.533
13 | VQQVIYATGAL [MYH7_Y422] | 0.932 | 0.96 | 0.986 | 0.488 | 0.798 | 0.71 | 1 | 6.98 | 7.57 | 1.38 | 3.08 | 25.3 | 5.97 | 0.798 | 0.727 | 0.413
14 | VRFTEYETQVK [TARDBP_Y155] | 0.791 | 0.53 | 1.01 | 0.413 | 0.542 | 0.431 | 0.896 | 0.4 | 0.519 | 0.761 | 0.401 | 0.629 | 0.406 | 0.813 | 0.754 | 0.583
15 | VRTGIYHGGKP [PIK3CA_Y361_E365K] | 0.451 | 0.268 | 0.336 | 0.456 | 0.275 | 0.359 | 0.499 | 0.309 | 0.713 | 0.464 | 0.294 | 0.501 | 0.318 | 0.898 | 0.915 | 0.63
16 | VSGIPYGQPKQ [NEU1_Y251] | 0.494 | 0.349 | 0.323 | 0.415 | 0.437 | 0.44 | 0.57 | 0.339 | 0.419 | 0.522 | 0.336 | 0.422 | 0.434 | 0.94 | 1.22 | 0.331
17 | VSLEAYCKHKF [RXRA_Y403_A398V_YF] | 0.949 | 0.571 | 0.509 | 0.392 | 0.568 | 0.411 | 1.07 | 0.399 | 0.353 | 1.11 | 0.443 | 0.898 | 0.556 | 0.702 | 0.674 | 0.337

Row | Sequence | phosphorylation enrichment (AncSZ) | phosphorylation enrichment (EPHB1) | phosphorylation enrichment (EPHB2) | phosphorylation enrichment (FGFR1) | phosphorylation enrichment (FGFR3) | phosphorylation enrichment (Fer (mouse)) | phosphorylation enrichment (Fes) | phosphorylation enrichment (Fyn) | phosphorylation enrichment (Hck) | phosphorylation enrichment (Jak2) | phosphorylation enrichment (MERTK) | phosphorylation enrichment (c-Abl (mouse)) | phosphorylation enrichment (c-Src) | SH2 binding enrichment (Grb2 SH2) | SH2 binding enrichment (SHP2-C SH2) | SH2 binding enrichment (c-Src SH2)
18 | VSNFNYFYHRE [KCNA1_Y413] | 1.01 | 0.614 | 0.549 | 1.66 | 1.86 | 0.404 | 0.999 | 0.433 | 0.501 | 0.943 | 0.47 | 0.874 | 0.512 | 1.07 | 1.9 | 0.795
19 | VSTAVYKRFPS [BEST1_Y148] | 0.512 | 0.348 | 0.382 | 0.498 | 0.463 | 0.395 | 0.733 | 0.379 | 0.426 | 0.593 | 0.526 | 0.668 | 0.395 | 0.748 | 0.647 | 0.414
20 | VTGWGYRKLRD [F11_Y521] | 0.792 | 0.364 | 0.517 | 0.392 | 0.419 | 0.385 | 0.703 | 0.463 | 0.42 | 0.655 | 0.51 | 0.477 | 0.479 | 0.798 | 0.472 | 0.505
21 | VTQEPYELYCE [CBL_Y368_Q367P] | 1.65 | 0.763 | 0.621 | 0.554 | 0.794 | 0.86 | 1.13 | 0.761 | 0.717 | 0.999 | 0.461 | 0.74 | 1.24 | 1.01 | 0.861 | 0.695
22 | VTQEQYELHCE [CBL_Y368_Y371H] | 1.2 | 0.708 | 0.601 | 0.542 | 0.874 | 0.736 | 1.35 | 0.576 | 0.479 | 1.1 | 0.37 | 0.791 | 0.52 | 0.656 | 0.48 | 0.571
23 | VTVLDYEKIGK [SYT1_Y365_D366E] | 0.783 | 1.07 | 0.524 | 0.456 | 0.561 | 0.412 | 0.868 | 0.479 | 0.573 | 0.77 | 0.393 | 0.54 | 0.355 | 0.662 | 0.649 | 0.89
24 | VVAHHYSFAPD [TNS3_Y601_Q600H] | 0.646 | 0.426 | 0.502 | 0.683 | 0.674 | 0.499 | 0.882 | 0.532 | 0.453 | 0.707 | 0.593 | 0.583 | 0.643 | 0.781 | 1.43 | 2.22
25 | VVQGIYGFHHF [UFSP2_Y285_YF] | 0.886 | 1.75 | 5.04 | 0.693 | 0.502 | 16.3 | 1.62 | 10.1 | 8.93 | 0.846 | 9.74 | 5.3 | 7.39 | 1.03 | 0.923 | 0.83
26 | VVQGIYGFHHH [UFSP2_Y285_Y290H_YF] | 0.685 | 0.65 | 1.19 | 0.523 | 0.496 | 11.7 | 0.776 | 11.7 | 10.8 | 0.538 | 9.65 | 2.36 | 9.09 | 1.06 | 0.757 | 0.588
27 | WASQRYGRELR [BAD_Y110_A107S] | 0.621 | 0.484 | 0.538 | 0.39 | 0.414 | 0.332 | 0.84 | 0.624 | 0.4 | 0.644 | 0.516 | 0.728 | 0.501 | 0.861 | 0.504 | 0.324
28 | WIGRKYKKVRF [F8_Y442_R437W] | 0.567 | 0.547 | 0.518 | 0.506 | 0.54 | 0.492 | 0.611 | 0.552 | 0.546 | 0.571 | 0.527 | 0.676 | 0.619 | 1.28 | 0.456 | 0.388
29 | WNDLDYMDSRR [GAA_Y407] | 1.34 | 0.698 | 0.532 | 0.59 | 0.674 | 0.427 | 1.26 | 0.451 | 0.471 | 1.4 | 0.371 | 0.864 | 0.646 | 0.936 | 0.622 | 0.553
30 | WQQQSYLDLGI [CTNNB1_Y30_S33L] | 0.831 | 0.719 | 0.593 | 1.76 | 1.36 | 0.515 | 0.918 | 0.545 | 0.478 | 1.35 | 0.511 | 0.685 | 0.517 | 1.03 | 0.766 | 0.607
31 | WQQQSYLDSGI [CTNNB1_Y30] | 0.75 | 0.489 | 0.433 | 0.479 | 0.597 | 0.428 | 0.847 | 0.388 | 0.407 | 0.758 | 0.418 | 0.568 | 0.38 | 0.726 | 0.649 | 0.571
32 | YCRHNYGVGES [HLA-DRB1_Y112_V115G] | 0.686 | 0.492 | 0.473 | 0.549 | 0.534 | 0.361 | 0.913 | 0.487 | 0.383 | 0.65 | 0.582 | 0.602 | 0.552 | 0.936 | 0.838 | 0.823
33 | YGLPRYRWLTH [TSPAN12_Y143] | 0.841 | 0.5 | 0.628 | 0.572 | 0.475 | 0.411 | 0.765 | 0.492 | 0.543 | 0.659 | 0.492 | 0.512 | 0.387 | 0.797 | 0.723 | 0.404
